Substrate in this data set: Nc1ncnc2c1ncn2[C@@H]1O[C@H](CO)[C@@H](O)[C@H]1O
Description: UV spectrophotometric deamination kinetics. It is filed as biochemical, Plasmodium vivax. Conditions: zinc.

B1: P. vivax adenosine deaminase (pvADA) (Plasmodium vivax Sal-1) (protein)
chain: MNILQEPIDFLKKEELKNIDLSQMSKKERYKIWKRIPKCELHCHLDLCFSADFFVSCIRKYNLQPNLSDEEVLDYYLFAKGGKSLGEFVEKAIKVADIFHDYEVIEDLAKHAVFNKYKEGVVLMEFRYSPTFVAFKYNLDIELIHQAIVKGIKEVVELLDHKIHVALMCIGDTGHEAANIKASADFCLKHKADFVGFDHGGHEVDLKEYKEIFDYVRESGVPLSVHAGEDVTLPNLNTLYSAIQVLKVERIGHGIRVAESQELIDMVKEKNILLEVCPISNVLLKNAKSMDTHPIRQLYDAGVKVSVNSDDPGMFLTNINDDYEELYTHLNFTLEDFMKMNEWALEKSFMDSNIKDKIKNLYF
Take B1: the Km – broadly, the substrate concentration at which the rate is half of its maximum – was found to be 71 ± 16 µM.

The values above are taken from PMC3327807.
